# Positions count from the first letter of the chain named. Names and notes keep the numbering of the source. Values joined by “and” are separate entries in the source; they are usually repeats but may differ in a detail not shown here. Equal values may be shown once.
# T1: lys-plasminogen, P00747
# T1 chain: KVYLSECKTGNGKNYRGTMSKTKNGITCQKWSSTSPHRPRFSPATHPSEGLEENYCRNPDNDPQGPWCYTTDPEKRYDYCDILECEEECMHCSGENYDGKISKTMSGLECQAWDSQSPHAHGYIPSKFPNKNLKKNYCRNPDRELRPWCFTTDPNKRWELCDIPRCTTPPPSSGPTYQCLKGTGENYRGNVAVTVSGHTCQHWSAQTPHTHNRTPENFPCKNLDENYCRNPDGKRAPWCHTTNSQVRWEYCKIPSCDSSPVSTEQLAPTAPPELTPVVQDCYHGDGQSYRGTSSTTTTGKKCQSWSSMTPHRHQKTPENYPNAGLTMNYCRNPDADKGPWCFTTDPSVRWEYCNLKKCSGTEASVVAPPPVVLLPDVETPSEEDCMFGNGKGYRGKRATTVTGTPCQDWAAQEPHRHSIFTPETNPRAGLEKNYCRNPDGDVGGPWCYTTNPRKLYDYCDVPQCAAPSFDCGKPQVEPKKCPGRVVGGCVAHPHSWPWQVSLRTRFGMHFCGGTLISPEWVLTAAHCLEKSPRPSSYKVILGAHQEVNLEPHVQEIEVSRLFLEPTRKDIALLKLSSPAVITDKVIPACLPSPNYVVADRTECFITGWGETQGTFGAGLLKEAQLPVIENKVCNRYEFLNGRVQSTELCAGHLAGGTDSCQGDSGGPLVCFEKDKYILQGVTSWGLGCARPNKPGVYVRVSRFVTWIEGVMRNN
# B1: t-PA/R275E, single-chain form (protein)
# chain: SYQVICRDEKTQMIYQQHQSWLRPVLRSNRVEYCWCNSGRAQCHSVPVKSCSEPRCFNGGTCQQALYFSDFVCQCPEGFAGKCCEIDTRATCYEDQGISYRGTWSTAESGAECTNWNSSALAQKPYSGRRPDAIRLGLGNHNYCRNPDRDSKPWCYVFKAGKYSSEFCSTPACSEGNSDCYFGNGSAYRGTHSLTESGASCLPWNSMILIGKVYTAQNPSAQALGLGKHNYCRNPDGDAKPWCHVLKNRRLTWEYCDVPSCSTCGLRQYSQPQFEIKGGLFADIASHPWQAAIFAKHRRSPGERFLCGGILISSCWILSAAHCFQERFPPHHLTVILGRTYRVVPGEEEQKFEVEKYIVHKEFDDDTYDNDIALLQLKSDSSRCAQESSVVRTVCLPPADLQLPDWTECELSGYGKHEALSPFYSERLKEAHVRLYPSSRCTSQHLLNRTVTDNMLCAGDTRSGGPQANLHDACQGDSGGPLVCLNDGRMTLVGIISWGLGCGQKDVPGVYTKVTNYLDWIRDNMRP
# B2: t-PA/R275E,H417E, single-chain form (protein)
# chain: B1 chain with H417E
# B3: t-PA/R275E,H417D, single-chain form (protein)
# chain: B1 chain with H417D
# B4: wild type human t-PA, two-chain form (protein)
# chain 1: SYQVICRDEKTQMIYQQHQSWLRPVLRSNRVEYCWCNSGRAQCHSVPVKSCSEPRCFNGGTCQQALYFSDFVCQCPEGFAGKCCEIDTRATCYEDQGISYRGTWSTAESGAECTNWNSSALAQKPYSGRRPDAIRLGLGNHNYCRNPDRDSKPWCYVFKAGKYSSEFCSTPACSEGNSDCYFGNGSAYRGTHSLTESGASCLPWNSMILIGKVYTAQNPSAQALGLGKHNYCRNPDGDAKPWCHVLKNRRLTWEYCDVPSCSTCGLRQYSQPQFR
# chain 2: IKGGLFADIASHPWQAAIFAKHRRSPGERFLCGGILISSCWILSAAHCFQERFPPHHLTVILGRTYRVVPGEEEQKFEVEKYIVHKEFDDDTYDNDIALLQLKSDSSRCAQESSVVRTVCLPPADLQLPDWTECELSGYGKHEALSPFYSERLKEAHVRLYPSSRCTSQHLLNRTVTDNMLCAGDTRSGGPQANLHDACQGDSGGPLVCLNDGRMTLVGIISWGLGCGQKDVPGVYTKVTNYLDWIRDNMRP
# B5: t-PA/H417D, two-chain form (protein)
# chain 1: B4 chain 1
# chain 2: B4 chain 2 with H142D
# B6: t-PA/K429Y, two-chain form (protein)
# chain 1: B4 chain 1
# chain 2: B4 chain 2 with K154Y
# B7: t-PA/H417E, two-chain form (protein)
# chain 1: B4 chain 1
# chain 2: B4 chain 2 with H142E
# Legend:
# [1] = target: stimulatory thirteen amino acid peptide P368
# [2] = target: fibrinogen
# [3] = target: T1, lys-plasminogen, P00747
# [4] = target: soluble fibrin monomers (DESAFIB)
protein,measurement,setting,value
B1,stimulation of plasminogen activation by co-factor (indirect chromogenic assay),[1],moderately
same,stimulation of plasminogen activation by co-factor (indirect chromogenic assay),[2],stimulated strongly
same,Kcat of plasminogen activation in the absence of a cofactor,[3],0.014 s⁻¹ and 0.038 s⁻¹
same,Kcat of plasminogen activation in the presence of fibrin,[3],0.16 s⁻¹ and 0.1 s⁻¹
same,Kcat/Km of plasminogen activation in the absence of a cofactor,[3],1500 M⁻¹ s⁻¹ and 1300 M⁻¹ s⁻¹
same,Kcat/Km of plasminogen activation in the presence of fibrin,[3],9.4e+06 M⁻¹ s⁻¹ and 5e+06 M⁻¹ s⁻¹
same,Km of plasminogen activation in the presence of fibrin,[3],0.017 µM and 0.02 µM
same,Fold stimulation of kcat/Km by fibrin,[4],6300 fold and 3800 fold
same,fibrin selectivity factor (specific activity in the presence of fibrin over that in the presence of fibrinogen),[4],1.0 for single chain t-PA/R275E
same,stimulation of plasminogen activation by co-factor (indirect chromogenic assay),[4],stimulated strongly
B2,Kcat of plasminogen activation in the absence of a cofactor,[3],0.002 s⁻¹
same,Kcat of plasminogen activation in the presence of fibrin,[3],0.17 s⁻¹
same,Kcat/Km of plasminogen activation in the absence of a cofactor,[3],240 M⁻¹ s⁻¹
same,Kcat/Km of plasminogen activation in the presence of fibrin,[3],6.1e+06 M⁻¹ s⁻¹
same,Km of plasminogen activation in the absence of a cofactor,[3],8.5 µM
same,Km of plasminogen activation in the presence of fibrin,[3],0.028 µM
same,"fold reduction of activity toward plasminogen without co-factor, against single chain t-PA/R275E",[3],"reduced by a factor of approximately 14 or 6, respectively"
same,Fold stimulation of kcat/Km by fibrin,[4],25400 fold
B3,Kcat of plasminogen activation in the absence of a cofactor,[3],0.001 s⁻¹
same,Kcat of plasminogen activation in the presence of fibrin,[3],0.23 s⁻¹
same,Kcat/Km of plasminogen activation in the absence of a cofactor,[3],110 M⁻¹ s⁻¹
same,Kcat/Km of plasminogen activation in the presence of fibrin,[3],5.3e+06 M⁻¹ s⁻¹
same,Km of plasminogen activation in the absence of a cofactor,[3],9.4 µM
same,Km of plasminogen activation in the presence of fibrin,[3],0.043 µM
same,"fold reduction of activity toward plasminogen without co-factor, against single chain t-PA/R275E",[3],"reduced by a factor of approximately 14 or 6, respectively"
same,Fold stimulation of kcat/Km by fibrin,[4],48200 fold
B4,stimulation of plasminogen activation by co-factor (indirect chromogenic assay),[1],strongly stimulated
same,stimulation of plasminogen activation by co-factor (indirect chromogenic assay),[2],strongly stimulated
same,Kcat of plasminogen activation in the absence of a cofactor,[3],0.093 s⁻¹ and 0.16 s⁻¹
same,Kcat of plasminogen activation in the presence of fibrin,[3],0.11 s⁻¹ and 0.08 s⁻¹
same,Kcat/Km of plasminogen activation in the absence of a cofactor,[3],14000 M⁻¹ s⁻¹ and 16000 M⁻¹ s⁻¹
same,Kcat/Km of plasminogen activation in the presence of fibrin,[3],6.5e+06 M⁻¹ s⁻¹ and 4e+06 M⁻¹ s⁻¹
same,Km of plasminogen activation in the absence of a cofactor,[3],6.7 µM and 10 µM
same,Km of plasminogen activation in the presence of fibrin,[3],0.017 µM and 0.02 µM
same,Fold stimulation of kcat/Km by fibrin,[4],460 fold and 250 fold
same,fibrin selectivity factor (specific activity in the presence of fibrin over that in the presence of fibrinogen),[4],1.5 for two-chain t-PA
same,stimulation of plasminogen activation by co-factor (indirect chromogenic assay),[4],strongly stimulated
B5,Kcat of plasminogen activation in the absence of a cofactor,[3],0.11 s⁻¹
same,Kcat of plasminogen activation in the presence of fibrin,[3],0.11 s⁻¹
same,Kcat/Km of plasminogen activation in the absence of a cofactor,[3],16000 M⁻¹ s⁻¹
same,Kcat/Km of plasminogen activation in the presence of fibrin,[3],4.6e+06 M⁻¹ s⁻¹
same,Km of plasminogen activation in the absence of a cofactor,[3],6.8 µM
same,Km of plasminogen activation in the presence of fibrin,[3],0.024 µM
same,Fold stimulation of kcat/Km by fibrin,[4],290 fold
B6,stimulation of plasminogen activation by co-factor (indirect chromogenic assay),[1],strongly stimulated
same,stimulation of plasminogen activation by co-factor (indirect chromogenic assay),[2],strongly stimulated
same,Kcat of plasminogen activation in the absence of a cofactor,[3],0.18 s⁻¹
same,Kcat of plasminogen activation in the presence of fibrin,[3],0.08 s⁻¹
same,Kcat/Km of plasminogen activation in the absence of a cofactor,[3],13000 M⁻¹ s⁻¹
same,Kcat/Km of plasminogen activation in the presence of fibrin,[3],3e+06 M⁻¹ s⁻¹
same,Km of plasminogen activation in the absence of a cofactor,[3],14 µM
same,Km of plasminogen activation in the presence of fibrin,[3],0.03 µM
same,"fold difference of activity toward plasminogen without co-factor, against two-chain t-PA",[3],differed by a factor of only 1.2
same,percent of the activity of two-chain t-PA toward plasminogen in the presence of fibrin,[3],approximately 75% of the activity of two-chain t-PA
same,Fold stimulation of kcat/Km by fibrin,[4],230 fold
same,fibrin selectivity factor (specific activity in the presence of fibrin over that in the presence of fibrinogen),[4],1.5 for two-chain t-PA/K429Y
same,stimulation of plasminogen activation by co-factor (indirect chromogenic assay),[4],strongly stimulated
B7,Kcat of plasminogen activation in the absence of a cofactor,[3],0.099 s⁻¹
same,Kcat of plasminogen activation in the presence of fibrin,[3],0.1 s⁻¹
same,Kcat/Km of plasminogen activation in the absence of a cofactor,[3],11000 M⁻¹ s⁻¹
same,Kcat/Km of plasminogen activation in the presence of fibrin,[3],4.5e+06 M⁻¹ s⁻¹
same,Km of plasminogen activation in the absence of a cofactor,[3],8.7 µM
same,Km of plasminogen activation in the presence of fibrin,[3],0.022 µM
same,Fold stimulation of kcat/Km by fibrin,[4],410 fold

# Source: patent US6869778
